From paper PMC12891897, “Blocking TRIM47-mediated HNF4α degradation suppresses hepatocellular carcinoma progression” (Acta Pharmaceutica Sinica. B, 2025) come the findings set out here.

In assay [1] the target is V5-tagged HNF4α (hepatocyte nuclear factor 4alpha), full length (amino acids 1–474), P41235-1. The assay is described as follows: Co-IP (IP-Flag) and Western blotting, V5 band quantified. The following applies: HEK293T cells, transfected for 48 h; parent: 1. (In western blotting, separated proteins are transferred to a membrane and probed.)
Assay [2] deals with Flag-tagged TRIM47 (tripartite motif 47), full length (amino acids 1–638), Q96LD4-1. Described as above. The following applies: HEK293T cells, co-transfected for 48 h; parent: 1.
Flag-tagged TRIM47 (tripartite motif 47), full length (amino acids 1–638), Q96LD4-1, sequence (Q96LD4 whole entry, the tested form may be a part): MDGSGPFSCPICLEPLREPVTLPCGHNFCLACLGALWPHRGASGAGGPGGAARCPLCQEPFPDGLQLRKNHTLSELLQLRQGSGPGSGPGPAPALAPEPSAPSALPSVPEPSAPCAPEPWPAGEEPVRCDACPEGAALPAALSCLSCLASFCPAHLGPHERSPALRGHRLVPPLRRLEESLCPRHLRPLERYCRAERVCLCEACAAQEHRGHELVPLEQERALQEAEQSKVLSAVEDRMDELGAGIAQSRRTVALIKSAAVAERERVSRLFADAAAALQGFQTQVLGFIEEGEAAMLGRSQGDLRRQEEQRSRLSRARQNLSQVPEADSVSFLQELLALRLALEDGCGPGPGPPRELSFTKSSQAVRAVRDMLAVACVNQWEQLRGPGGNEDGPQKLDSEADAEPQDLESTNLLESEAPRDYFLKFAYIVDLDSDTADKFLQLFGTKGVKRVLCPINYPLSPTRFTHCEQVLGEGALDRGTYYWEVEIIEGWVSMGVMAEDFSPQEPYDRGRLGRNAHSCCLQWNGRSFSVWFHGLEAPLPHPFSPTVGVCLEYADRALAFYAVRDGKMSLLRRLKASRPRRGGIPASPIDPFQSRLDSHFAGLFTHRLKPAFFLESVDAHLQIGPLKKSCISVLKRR

As to “Flag-tagged TRIM47 (tripartite motif 47), full length (amino acids 1–638) (from UniProt Q96LD4-1) K534A; K600A”, the ratio to parent in assay [1] is 0.49 Fold.

Turning to “V5-tagged HNF4α (hepatocyte nuclear factor 4alpha), full length (amino acids 1–474) (from UniProt P41235-1) K342A; W349A; E353A”, the ratio to parent in assay [2] is 0.23 Fold.

With “V5-tagged HNF4α (hepatocyte nuclear factor 4alpha), full length (amino acids 1–474) (from UniProt P41235-1) E353A”, in assay [2], the ratio to parent is 0.38 Fold.

For the substance “Flag-tagged TRIM47 (tripartite motif 47), full length (amino acids 1–638) (from UniProt Q96LD4-1) K600A”, the ratio to parent in assay [1] came to 0.83 Fold.

As to “V5-tagged HNF4α (hepatocyte nuclear factor 4alpha), full length (amino acids 1–474) (from UniProt P41235-1) K342A”, the ratio to parent in assay [2] was found to be 0.56 Fold.

Consider “V5-tagged HNF4α (hepatocyte nuclear factor 4alpha), full length (amino acids 1–474) (from UniProt P41235-1) W349A”, for which the ratio to parent in assay [2] was 0.49 Fold.

Consider “Flag-tagged TRIM47 (tripartite motif 47), full length (amino acids 1–638) (from UniProt Q96LD4-1) K534A”, for which the ratio to parent in assay [1] turned out to be 0.79 Fold.
